# Data from the DeepSol protein solubility set.
# Test: soluble on expression in E. coli; label from the status in PepcDB or PDB records
row,Sequence,soluble on expression in E. coli
1,MITVNTLQKMKAAGEKIAMLTAYESSFAALMDDAGVDVLLVGDSLGMAVQGRQSTLPVSLRDMCYHTECVARGAKNAMIVSDLPFGAYQQSKEQAFAAAAELMAAGAHMVKLEGGVWMAETTEFLQMRGIPVCAHIGLTPQSVFAFGGYKVQGRGGKAQALLNDAKAHDDAGAAVVLMECVPAELAKKVTESVSCPTIGIGAGVDCDGQVLVMHDMLGIFPGKTAKFVKNFMQGQSSIQAAVRAYVAEVKAKTFPAAEHIFAD,not soluble
2,MRGDDMHIYELVSRDRTHPVRIYLLHSEYWTEDEFYNLLLEAFQRSSASDWHLQILEVSKYLVTAHGFVEAGGLQEIGFPGELSKTEVRRRINAFLGKDRSD,soluble
3,MRKYEQKQLRNHDILTQHYEEVYRQLPEFKSLDDSISILSVQYGKRLLNGDQKAISSLKEELAILRASKQELLRSSGFPADYLEPVYDCPNCKDTGYIGNQKCHCFKKAIIDLLYEQSNLKEILKKENFSNFALDYYSTNFIDPKTGRSSRQVIEDALRICRNFVTSFGTDFQNLFLYGDVGVGKTFLSNCIAKELMDKEYSVLYFSASKFFSSLAKHAFDKQDVDAQNMFELIYNCDCLIIDDLGTEYTNNFIASQFFTCINERLLNSRSTIISTNLSLDTLADLYTERSFSRITSNYIMLKLIGDDIRIKKKLKNREEN,not soluble
4,MGHHHHHHSHMVKFKVIALAALMGISGMAAQANELPDGPHIVTSGTASVDAVPDIATLAIEVNVAAKDAATAKKQADERVAQYISFLELNQIAKKDISSANLRTQPDYDYQDGKSILKGYRAVRTVEVTLRQLDKLNSLLDGALKAGLNEIRSVSLGVAQPDAYKDKARKAAIDNAIHQAQELANGFHRKLGPVYSVRYHVSNYQPSPMVRMMKADAAPVSAQETYEQAAIQFDDQVDVVFQLEPVDQQPAKTPAAQ,soluble
5,MGSDKIHHHHHHLNTDPSTAVPSDDAIKNIDDAQVALNGIYRLASAHSYYGDNYLYYADCRGEDVQARINKGAGRRVSPYYFFDVTADDNFNITLVWNQPYKVIHQANSLIEKLDAGNAGNARPEEVARIKSEALAMRGLALFDLTRLFGMPYTLDNGASLGVPIEIQTTLEDHAPERNTVAQCYEQVLKDLNDALGGLTKEKHDAYMNYWSVKALLSRVYLYMNDNENALKCAEEVINDNGGIYRLFTHDEYPSVWGKDFNSESLFEFYFTMSEPSGGSGGEGAPMVYADNVKDWNNLILTKAYLDLLNEDPEDVRHVFPHLPENAVADTLPVAAKGQPKYLIKYPGKSGSVTDAVSTVNPQDNDLCILRLSEVYLNAAEAAFKIGNTEKALTYLNAIVTRANPAKSVTSADLSLERILKERRKELVGEGHAFFDYMRNGKSVDRSGGWHLTMPEDARVIAPSDPRVALPIPQTEIDANPNIVQNPR,not soluble
6,MGSDKIHHHHHHACILFVCFLYTNNEIGVTSSKLEADIRSSQKIKDDWTVDGSVSSTMAAYISYPQDLSDHSFSVYVNRPGLSFGYFFRGGGTLSGIQRGIVEFTVEGYNERAFISMNQQQVQQLEIDDGNTIQVVDIDRNKPFAIVLPINAGNITFYDVNRNTVEYWNNPL,not soluble
7,MAHHHHHHMDSIVLPGEALGSCDAYVSGENTYSLQKEVRSAILGRRQLTTNGDGKQVISVANTKEFIPLPQVGDLVTCKVYRVTFNLIYCNIILLNSKAVRNSFRAFINKSDIHVYEGELGDNFECFKQGDIIRAKVLSVAQHGSYKLSTVGSDLGVILALSDGGERKRGKKQKKTKKQKKKKKKKEP,not soluble
8,PDSAVVRIHSSSGTTGKPVIIPYTRNDVDTWAELMMRCYMLAGLTNQDRIQITPGYGLWTAGIGFQLGAERLGAMAIPTGPGNTEKQLEMLVDLKTTALASTSSYALLLAEEIEKRGLKDRIHLRTGVIGSERWSEKMRSRIENELGIETFDIYGLTEIYGPGIALDCSYHEGMHYW,not soluble
9,MNNSINHKFHHISRAEYQELLAVSRGDAVADYIIDNVSILDLINGGEISGPIVIKGRYIAGVGAEYTDAPALQRIDAHGATAVPGFIDAHLHIESSMMTPVTFETATLPRGLTTVICDPHEIVNVMGEAGFAWFARCAEQARQNQYLQVSSCVPALEGCDVNGASFTLEQMLAWRDHPQVTGLAEMMDYPGVISGQNALLDKLDAFRHLTLDGHCPGLGGKELNAYIAAGIENCHESYQLEEGRRKLQLGMSLMIREGSAARNLNALAPLINEFNSPQCMLCTDDRNPWEIAHEGHIDALIRRLIEQHNVPLHVAYRVASWSTARHFGLNHLGLLAPGKQADIVLLSDARKVTVQQVLVKGEPIDAQTLQAEESAKLAQSAPPYGNTIARQPVSASDFALQFTPGKRYRVIDVIHNELITHSHSSVYSENGFERNDVCFIAVLERYGQRLAPACGLLGGFGLNEGALAATVSHDSHNIVVIGRSAEEMALAVNQVIQDGGGLCVVRNGQVQSHLPLPIAGLMSTDTAQSLAEQIDALKAAARECGPLPDEPFIQMAFLSLPVIPALKLTSQGLFDGEKFAFTTLEVTE,not soluble
10,MNRFLKHWRLSGRCEAFHGQIISYADDFVILSRGHAEDALTWTKAVMTKLGLTLNETKTSVKNARLESFDFLGYTLGPRHFRNGGRWYLGAAPSKKSVLRIKRKVSELLTPGNKGAWPEVQARLNRLLRGWSAYFSYGSLATAHQAVDRHVFDRVLAFLRRRHKTPGRGVRRFSDQIYGNPGVLVLNRVRKVSPTCALLEHHHHHH,not soluble
11,MGIPILKLGECLLISIQSELDDHTAVEFQEDLLAKIHETSARGVVIDITSIDFIDSFIAKILGDVVSMSKLMGAKVVVTGIQPAVAITLIELGITFSGVLSAMDLESGLEKLKQELGE,not soluble
12,MACAAARSPADQDRFICIYPAYLNNKKTIAEGRRIPISKAVENPTATEIQDVCSAVGLNVFLEKNKMYSREWNRDVQYRGRVRVQLKQEDGSLCLVQFPSRKSVMLYAAEMIPKLKTRTQLEHHHHHH,soluble
13,MDTQTLNSDLRVFMHHIYEFEKGVRSMVLATLANDDIPYAEERLRSRQIPYFAQPTPNTERTNLFFGCKECMEAIRLFVSGRSLNSLTPEEDFIIGAMLGYDICRQCERYCRRKSNS,soluble
14,AALGPSSQNVTEYVVRVPKNTTKKYNIMAFNAADKVNFATWNQARLERDLSNKKIYQEEEMPESGAGSEFNRKLREEARRKKYGIVLKEFRPEDQPWLLRVNGKSGRKFKGIKKGGVTENTSYYIFTQCPDGAFEAFPVHNWYNFTPLARHRTLTAEEAEEEWERRNKVLN,soluble
15,MATEDAVREALATVNDPEINRPITELGMVKSVEIGADGAVAVAVYLTVSGCPMRDTITQRVSDAVSRVEGVTRVDVELDVMSDEQRKELATALRGGQTEREVPFAKPGSLTRVYAVASGKGGVGKSSVTVNLAASMAADGLKVGVVDADIYGHSVPRMLGADGRPTQVENMIMPPSAHGVKVISIGMFTPGNAPVVWRGPMLHRALQQFLADVYWGDLDVLLLDLPPGTGDIAISVAQLVPNAEILVVTTPQQAAAEVAERAGAIAVQTHQKIVGVVENMSGLPCPHCGEMVDVFGTGGGQTVADGLTRTTGASVPVLGAIPIDVRLREGGDEGKPVVLSDPDSPAGAALRSIAGKLGGRQRGLSGLSLGITPKNKFLEHHHHHH,soluble
